Results published in US6383761B1, “Methods and compositions for identifying modulators of G-protein-coupled receptors” (The Regents of the University of California, priority 1997, dated 2002).

Columns and labels:
D2 dopamine receptor = molecular target: T1, D2 dopamine receptor (Homo sapiens, UniProt P14416); type: cell-based
T1 construct: expressed in transfected cells; host or cells: COS-7

m2 muscarinic receptor = molecular target: T2, m2 muscarinic receptor (Homo sapiens, UniProt P08172); assay: PI hydrolysis assay (IP1 accumulation) in COS-7 cells co-transfected with receptor and Gαq construct; type: cell-based; conditions: carbachol 100 μM, pertussis toxin pretreatment 500 ng/ml
T2 sequence (P08172 1-466): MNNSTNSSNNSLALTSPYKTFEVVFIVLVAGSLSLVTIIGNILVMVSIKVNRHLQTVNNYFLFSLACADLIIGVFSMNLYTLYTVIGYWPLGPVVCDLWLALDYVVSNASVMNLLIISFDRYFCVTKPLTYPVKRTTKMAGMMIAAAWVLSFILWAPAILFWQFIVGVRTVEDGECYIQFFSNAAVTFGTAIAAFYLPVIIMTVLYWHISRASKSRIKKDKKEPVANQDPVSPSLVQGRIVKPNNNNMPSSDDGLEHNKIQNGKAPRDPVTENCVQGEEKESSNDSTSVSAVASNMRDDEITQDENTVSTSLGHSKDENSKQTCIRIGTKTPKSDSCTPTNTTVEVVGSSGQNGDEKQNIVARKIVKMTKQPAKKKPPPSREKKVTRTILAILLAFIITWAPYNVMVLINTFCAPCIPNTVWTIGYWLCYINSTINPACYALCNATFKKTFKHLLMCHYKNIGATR

T1 sequence (P14416 whole entry): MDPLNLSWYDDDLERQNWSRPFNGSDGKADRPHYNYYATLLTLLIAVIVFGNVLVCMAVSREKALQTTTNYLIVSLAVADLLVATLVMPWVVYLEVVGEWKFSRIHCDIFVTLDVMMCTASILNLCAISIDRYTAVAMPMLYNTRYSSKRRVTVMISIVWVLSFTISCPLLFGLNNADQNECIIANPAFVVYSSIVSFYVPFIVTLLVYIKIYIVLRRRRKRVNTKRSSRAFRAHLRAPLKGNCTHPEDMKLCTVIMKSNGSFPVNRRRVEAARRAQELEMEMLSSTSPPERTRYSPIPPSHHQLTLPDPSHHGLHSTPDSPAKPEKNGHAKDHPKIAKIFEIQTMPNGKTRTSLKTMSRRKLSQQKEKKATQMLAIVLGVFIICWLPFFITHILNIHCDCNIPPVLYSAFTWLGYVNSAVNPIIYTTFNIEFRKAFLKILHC

Substance: pertussis toxin
- block of agonist-induced PI response (D2 dopamine receptor): partly blocked
- block of agonist-induced increase in inositol phosphate production (D2 dopamine receptor): almost completely blocked
- block of agonist-induced PI response (m2 muscarinic receptor; m2 receptor co-expressed with −6q): partly blocked
- block of agonist-induced increase in inositol phosphate production (m2 muscarinic receptor; m2 receptor with vector DNA or WTq): almost completely blocked
